Reference: patent US20240254246A1 (PROMETHEUS BIOSCIENCES, published 2024)
Where two headings read alike, the source gives them in different places.

Experiments:
recombinant human CD30L [1] = molecular target: T1, recombinant human CD30L (human, UniProt P32971 63-234); assay: ELISA on recombinant protein
T1 construct: Purified recombinant protein of ELISA, BLI, Carterra and KinExA; also called rhCD30L; huCD30L
T1 sequence (looked up): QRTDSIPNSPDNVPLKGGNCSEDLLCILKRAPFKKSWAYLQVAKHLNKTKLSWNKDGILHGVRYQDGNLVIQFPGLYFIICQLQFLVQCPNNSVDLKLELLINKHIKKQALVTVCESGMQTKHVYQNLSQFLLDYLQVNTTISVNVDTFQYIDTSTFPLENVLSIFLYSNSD

[2] = molecular target: T2, recombinant cynomolgus CD30L (cynomolgus, UniProt A0A7N9CVX7 63-234); assay: ELISA on recombinant protein
T2 construct: Purified recombinant protein; also called rcyCD30L; cyno CD30L
T2 sequence: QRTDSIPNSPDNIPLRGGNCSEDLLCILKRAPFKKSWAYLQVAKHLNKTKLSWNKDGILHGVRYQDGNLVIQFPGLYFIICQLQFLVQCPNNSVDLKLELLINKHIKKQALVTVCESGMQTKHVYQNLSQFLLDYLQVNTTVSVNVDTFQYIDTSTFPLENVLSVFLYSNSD

recombinant mouse CD30L = molecular target: T3, recombinant mouse CD30L (mouse, UniProt P32972 68-239); assay: ELISA on recombinant protein
T3 construct: Purified recombinant protein; also called rmCD30L
T3 sequence (looked up): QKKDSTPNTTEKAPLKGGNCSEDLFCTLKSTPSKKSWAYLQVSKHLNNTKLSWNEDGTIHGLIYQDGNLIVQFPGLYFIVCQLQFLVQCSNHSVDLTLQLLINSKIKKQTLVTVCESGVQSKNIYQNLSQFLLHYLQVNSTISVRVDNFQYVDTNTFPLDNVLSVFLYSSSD

recombinant human CD30L [3] = molecular target: T1, recombinant human CD30L; assay: recombinant blocking ELISA; competitor CD30
[4] = molecular target: T4, human CD30L expressed on B16 cells (human, UniProt P32971 1-234); assay: flow cytometry on B16 cells expressing hCD30L
T4 construct: whole, on cells; B16 cell line transfected to express human CD30L; also called B16-huCD30L; B16-rhCD30L
T4 sequence (looked up): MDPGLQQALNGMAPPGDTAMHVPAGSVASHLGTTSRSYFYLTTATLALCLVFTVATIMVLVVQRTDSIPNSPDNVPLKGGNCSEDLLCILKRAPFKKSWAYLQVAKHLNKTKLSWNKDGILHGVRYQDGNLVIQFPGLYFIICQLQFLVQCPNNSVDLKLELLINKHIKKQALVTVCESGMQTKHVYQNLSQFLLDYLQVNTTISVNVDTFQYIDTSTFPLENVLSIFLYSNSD

[5] = molecular target: T4, human CD30L expressed on B16 cells; assay: flow cytometry, binding to B16 cells expressing human CD30L (MFI)
recombinant human CD30L [6] = molecular target: T1, recombinant human CD30L; assay: ELISA, binding to rhCD30L (OD 450 nm)
recombinant human CD30L [7] = molecular target: T1, recombinant human CD30L; assay: BLI, CD30 association to CD30L held by captured IgG; competitor rhCD30
Method: Briefly, individual anti-human biosensors were loaded with purified IgG (normalized to 10 μg/mL) and a baseline was measured for each biosensor. Biosensors were saturated with biotin and with polyclonal hulgG and a baseline was measured. Loaded biosensors were then allowed to bind CD30L and the association rate was measured for the binding. Biosensors were moved to buffer wells to measure the dissociation rate.

CDH13 = molecular target: T5, CDH13 (human, UniProt P55290 139-693); assay: cell microarray, library and confirmation screens
T5 construct: whole, on cells; also called hit #16
T5 sequence (looked up): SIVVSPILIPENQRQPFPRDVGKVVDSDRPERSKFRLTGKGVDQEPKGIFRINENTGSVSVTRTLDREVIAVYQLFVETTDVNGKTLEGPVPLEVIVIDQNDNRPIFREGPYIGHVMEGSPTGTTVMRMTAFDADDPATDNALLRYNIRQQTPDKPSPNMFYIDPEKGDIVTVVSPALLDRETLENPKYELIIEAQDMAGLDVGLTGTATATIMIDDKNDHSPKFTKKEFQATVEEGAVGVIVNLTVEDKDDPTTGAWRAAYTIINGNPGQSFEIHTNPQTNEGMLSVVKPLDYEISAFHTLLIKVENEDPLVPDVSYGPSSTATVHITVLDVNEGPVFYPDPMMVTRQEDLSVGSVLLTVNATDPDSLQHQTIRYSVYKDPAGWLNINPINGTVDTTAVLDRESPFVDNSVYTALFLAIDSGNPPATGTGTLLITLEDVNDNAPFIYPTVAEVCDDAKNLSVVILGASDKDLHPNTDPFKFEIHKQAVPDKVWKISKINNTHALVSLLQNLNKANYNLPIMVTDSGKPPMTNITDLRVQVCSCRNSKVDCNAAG

[8] = molecular target: T6, human CD30L expressed on cells (human, UniProt P32971 1-234); assay: cell-based or functional assay
T6 sequence: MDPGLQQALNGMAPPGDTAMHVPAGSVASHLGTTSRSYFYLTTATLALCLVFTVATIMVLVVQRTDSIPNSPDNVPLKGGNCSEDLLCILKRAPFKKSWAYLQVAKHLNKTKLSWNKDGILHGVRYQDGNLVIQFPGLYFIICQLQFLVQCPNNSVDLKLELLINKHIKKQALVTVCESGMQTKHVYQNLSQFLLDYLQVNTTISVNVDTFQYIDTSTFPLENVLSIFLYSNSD

[9] = molecular target: T7, cynomolgus CD30L expressed on cells (cynomolgus, UniProt A0A7N9CVX7 1-234); assay: cell-based or functional assay
T7 sequence: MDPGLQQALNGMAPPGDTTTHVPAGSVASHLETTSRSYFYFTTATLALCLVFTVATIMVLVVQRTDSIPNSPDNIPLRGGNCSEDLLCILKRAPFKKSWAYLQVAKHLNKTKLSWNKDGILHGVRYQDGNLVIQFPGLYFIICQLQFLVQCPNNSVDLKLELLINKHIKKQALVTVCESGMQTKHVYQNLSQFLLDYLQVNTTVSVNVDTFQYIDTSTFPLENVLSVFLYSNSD

recombinant human CD30L [10] = molecular target: T1, recombinant human CD30L; assay: ELISA, binding to rhCD30L (OD 450 nm); remark: listed apart in the source
[11] = molecular target: T4, human CD30L expressed on B16 cells; assay: cell-based or functional assay
[12] = molecular target: T4, human CD30L expressed on B16 cells; assay: flow cytometry, binding to B16 cells expressing human CD30L (MFI); remark: listed apart in the source

Binder | rhCD30L (+) ELISA (recombinant human CD30L [1]) | rcyCD30L (+) ELISA [2] | rmCD30L (+) ELISA (recombinant mouse CD30L) | IC50 (recombinant human CD30L [3]) [nM] | hCD30L B16 (+) FLOW [4] | EC50 (read off the curve) [5] [nM] | EC50 (read off the curve) (recombinant human CD30L [6]) [nM] | rhCD30L:rhCD30 Blocking (recombinant human CD30L [7]) | binding result (CDH13) | IL-8 release dual cell assay, fold better IC50 than reference 1 (ref1) anti-CD30L [8] [fold] | IL-8 release dual cell assay, fold better IC50 than reference 1 (ref1) anti-CD30L [9] [fold] | EC50 (read off the curve) (recombinant human CD30L [10]) [nM] | IC50 (read off the curve), IL-8 release, dual cell assay (B16-huCD30L cells + K299 cells) [11] [nM] | EC50 (read off the curve) [12] [nM]
anti-CD30L antibody clone 82 (antibody, V domains shown, purified recombinant IgG (held by anti-human biosensors); mouse strain #1) VH: EVQLVESGGGLVQPGGSLRLSCAVSGITFSNAWMSWVRQAPGKGLEWVGRIKSKTYGGTTDYAAPVKGRFIISRDDSKDTLYLQMNSLKTEDTAIYYCTTDPWNYVNYNYFMDVWGKGTTVTVSS VL: DIQMTQSPSSLSASVGDRVTITCRASQDIRNYLAWYQQKPGKITHLLVYAASTLQSGVPSRFSGSGSGTDFTLTINSLQPEDVATYYCQNYFSVPLTFGGGTKVEIK | 1.41 | 0.982 | 0.048 | 3.51 | 8.42e+06 | ~3 | ~0.1 | 0.071 |  |  |  |  |  | 
anti-CD30L antibody clone 2 with IgG1 constant region SEQ ID NO: 502 (antibody, V domains shown, copies: 2 + 2) VH: EVQLVESGGGLVQPGRSLRLSCAASGFNFDDYAMHWVRQAPGKGLEWVSGISWRSGNIGYAGSVKGRFTISRDNAKNSLYLQMNSLRPEDSALYYCAKDKGIGFNWNYEGFDYWGQGTLVTVSS VL: DIQMTQSPSSLSASVGDRVTITCRASQGISNHLAWFQQKPGKAPKSLIYAASSLQSGVPSKFSGSGSGTDFTLTISSLQPEDFATYYCQQYVTYPLTFGGGTKVEIK |  |  |  |  |  |  |  |  | no binding (tested: 5 µg/mL) | 2 | 2.6 |  |  | 
anti-CD30L antibody clone 80 (antibody, V domains shown, purified recombinant IgG (held by anti-human biosensors); mouse strain #1) VH: EVQLVESGGGLVQPGGSLRLSCEVSGFTFSSYDMHWVRQVTGTGLEWVSSIGIGGDTYYPGSVKGRFTISRENAKNSLYLQMNSLRGGDTGVYYCARGEWDLLWYFMDVWGKGTTVTVSS VL: DIQMTQSPSSLSASIGDRVTITCRASQGISSWLAWYQQKPGKAPKLLIYAASSLQSGVPSRFSGSGSGTDFTLTISSLQPEDFATYYCQQANSFPLTFGGGTKVEIK | 0.941 | 0.475 | 0.048 | 2.74 | 8.3e+06 |  |  | 0.0635 |  |  |  | ~0.2 | ~2 | ~1
